Where a chain is given by its changes, count along the chain named. Names and notes keep the numbering of the source.
B1: P13B02-12 (antibody, IgG1, V domains shown)
VH: QVQLVQSGAEVKKPGASVKVSCKASGFNIKDTYIHWVRQAPGQGLEWMGEIDPANDNTKYDPKFQGRVTITADTSSNTVYMELSSLRSEDTAVYYCATYYYRYDVGGFDYWGQGTLVTVSS
VL: EIVLTQSPGTLSLSPGERATLSCSVSSSISSSNLHWYQQKPGQAPRLLIYGTSNLASGIPDRFSGSGSGTSYTLTISRLEPEDFAVYYCQQWSSYPFTFGQGTKVEIK
notes: Humanized; generated as full length IgG1
B2: P13B02-01 (antibody, IgG1, V domains shown)
VH: B1 VH with I70M, A72R, S76T, N77S, T98R
VL: B1 VL with S71D, Y72F
notes: as for B1
B3: P13B02-36 (antibody, IgG1, V domains shown)
VH: B1 VH with R102K
VL: B1 VL with S71D, Y72F
notes: as for B1
B4: P13B02-33 (antibody, IgG1, V domains shown)
VH: B1 VH with L4M, V5K, K23T, S76T, N77S, R102K
VL: B1 VL with S71D, Y72F
notes: as for B1
B5: P13B02-24 (antibody, IgG1, V domains shown)
VH: B1 VH with L4M, V5K, K12V, K23T, M48I, M81L, E82Q
VL: B1 VL with V3L, Y37F, L48W, I59V
notes: as for B1
B6: P13B02-21 (antibody, IgG1, V domains shown)
VH: B1 VH with L4M, V5K, K12V, K23T, M48I, M81L, E82Q
VL: B1 VL with S71D, Y72F
notes: as for B1
B7: P13B02-15 (antibody, IgG1, V domains shown)
VH: B1 VH
VL: B1 VL with V3L, S22T, Y37F, A44S, L48W, I59V
notes: as for B1
B8: P13B02-35 (antibody, IgG1, V domains shown)
VH: B1 VH with V5K, K23T, S76T, N77S, R102K
VL: B1 VL with S71D, Y72F
notes: as for B1
B9: P13B02-29 (antibody, IgG1, V domains shown)
VH: B1 VH with K23T, S76T, N77S, R102K
VL: B1 VL with S71D, Y72F
notes: as for B1
B10: P13B02-09 (antibody, IgG1, V domains shown)
VH: B1 VH with S76T, N77S
VL: B1 VL with V3L, Y37F, L48W, I59V
notes: as for B1
B11: P13B02-30 (antibody, V domains shown)
VH: B1 VH with L4M, S76T, N77S, R102K
VL: B1 VL with S71D, Y72F
notes: Humanized full length IgG1; made in three versions (G1m17; G1m17 N297A; G1m3 N297A)
B12: P13B02-11 (antibody, IgG1, V domains shown)
VH: B1 VH
VL: B1 VL with S71D, Y72F
notes: as for B1
B13: P13B02-14 (antibody, IgG1, V domains shown)
VH: B1 VH
VL: B1 VL with V3L, Y37F, L48W, I59V
notes: as for B1
B14: P13B02-02 (antibody, IgG1, V domains shown)
VH: B1 VH with I70M, A72R, S76T, N77S, T98R
VL: B1 VL
notes: as for B1
B15: P13B02-03 (antibody, IgG1, V domains shown)
VH: B1 VH with I70M, A72R, S76T, N77S, T98R
VL: B1 VL with V3L, Y37F
notes: as for B1
B16: P13B02-19 (antibody, IgG1, V domains shown)
VH: B1 VH with L4M, V5K, K23T
VL: B1 VL with V3L, Y37F, L48W, I59V
notes: as for B1
B17: P13B02-08 (antibody, IgG1, V domains shown)
VH: B1 VH with S76T, N77S
VL: B1 VL with V3L, Y37F
notes: as for B1
B18: P13B02-32 (antibody, IgG1, V domains shown)
VH: B1 VH with L4M, V5K, S76T, N77S, R102K
VL: B1 VL with S71D, Y72F
notes: as for B1
B19: P13B02-37 (antibody, IgG1, V domains shown)
VH: B1 VH with L4M, V5K, K23T, R102K
VL: B1 VL with S71D, Y72F
notes: as for B1
B20: P13B02-22 (antibody, IgG1, V domains shown)
VH: B1 VH with L4M, V5K, K12V, K23T, M48I, M81L, E82Q
VL: B1 VL
notes: as for B1
B21: P13B02-10 (antibody, IgG1, V domains shown)
VH: B1 VH with S76T, N77S
VL: B1 VL with V3L, S22T, Y37F, A44S, L48W, I59V
notes: as for B1
B22: P13B02-28 (antibody, IgG1, V domains shown)
VH: B1 VH with S76T, N77S, R102K
VL: B1 VL with S71D, Y72F
notes: as for B1
B23: P13B02-31 (antibody, IgG1, V domains shown)
VH: B1 VH with L4M, K23T, S76T, N77S, R102K
VL: B1 VL with S71D, Y72F
notes: as for B1
B24: P13B02-17 (antibody, IgG1, V domains shown)
VH: B1 VH with L4M, V5K, K23T
VL: B1 VL
notes: as for B1
B25: P13B02-13 (antibody, IgG1, V domains shown)
VH: B1 VH
VL: B1 VL with V3L, Y37F
notes: as for B1
B26: P13B02-34 (antibody, IgG1, V domains shown)
VH: B1 VH with V5K, S76T, N77S, R102K
VL: B1 VL with S71D, Y72F
notes: as for B1
B27: P13B02-20 (antibody, IgG1, V domains shown)
VH: B1 VH with L4M, V5K, K23T
VL: B1 VL with V3L, S22T, Y37F, A44S, L48W, I59V
notes: as for B1
B28: P13B02-23 (antibody, IgG1, V domains shown)
VH: B1 VH with L4M, V5K, K12V, K23T, M48I, M81L, E82Q
VL: B1 VL with V3L, Y37F
notes: as for B1
B29: P13B02-18 (antibody, IgG1, V domains shown)
VH: B1 VH with L4M, V5K, K23T
VL: B1 VL with V3L, Y37F
notes: as for B1
B30: P13B02-05 (antibody, IgG1, V domains shown)
VH: B1 VH with I70M, A72R, S76T, N77S, T98R
VL: B1 VL with V3L, S22T, Y37F, A44S, L48W, I59V
notes: as for B1
B31: P13B02-04 (antibody, IgG1, V domains shown)
VH: B1 VH with I70M, A72R, S76T, N77S, T98R
VL: B1 VL with V3L, Y37F, L48W, I59V
notes: as for B1

What follows are binders tested against T1, recombinant human LAG-3 (human, UniProt P18627 23-450, limits assumed) (assay: surface plasmon resonance (data not shown)).
T1 sequence (looked up): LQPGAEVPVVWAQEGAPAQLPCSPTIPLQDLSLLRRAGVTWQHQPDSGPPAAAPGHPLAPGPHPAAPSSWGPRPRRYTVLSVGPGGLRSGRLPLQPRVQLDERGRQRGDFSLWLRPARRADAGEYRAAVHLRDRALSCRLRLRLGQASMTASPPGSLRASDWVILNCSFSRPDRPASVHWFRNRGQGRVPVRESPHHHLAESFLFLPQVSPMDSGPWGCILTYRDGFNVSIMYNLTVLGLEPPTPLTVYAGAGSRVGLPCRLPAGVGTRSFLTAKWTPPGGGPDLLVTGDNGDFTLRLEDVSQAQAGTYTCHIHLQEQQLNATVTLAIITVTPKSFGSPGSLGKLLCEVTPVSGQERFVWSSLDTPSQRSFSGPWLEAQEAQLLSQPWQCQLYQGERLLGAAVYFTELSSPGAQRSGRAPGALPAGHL
B1: binds.
B2: binds.
B3: binds.
B4: binds.
B5: binds.
B6: binds.
B7: binds.
B8: binds.
B9: binds.
B10: binds.
B11: binds.
B12: binds.
B13: binds.
B14: binds.
B15: binds.
B16: binds.
B17: binds.
B18: binds.
B19: binds.
B20: binds.
B21: binds.
B22: binds.
B23: binds.
B24: binds.
B25: binds.
B26: binds.
B27: binds.
B28: binds.
B29: binds.
B30: binds.
B31: binds.

— patent US20250206818A1 (AGENUS, published 2025)
